Test results as given in FireProtDB (doi:10.1021/bi00025a018).

B1: Ribonuclease HI, P0A7Y4 (parent)
chain: MLKQVEIFTDGSCLGNPGPGGYGAILRYRGREKTFSAGYTRTTNNRMELMAAIVALEALKEHCEVILSTDSQYVRQGITQWIHNWKKRGWKTADKKPVKNVDLWQRLDAALGQHQIKWEWVKGHAGHPENERCDELARAAAMNPTLEDTGYQVEV

Variants of: B1
Settings: Escherichia coli (strain K12), Thermal, CD, NaCl 0.1 M, reversible: yes, structure 2RN2, whole UniProt chain shown
[1] = pH 3, 50.9 °C, glycine-HCl 10 mM
[2] = pH 5.5, 52.5 °C, Sodium acetate 10 mM

D134H
ddG of mutation (higher = less stable) [1]: -0.5 kcal/mol
Tm (pH 3, glycine-HCl 10 mM): 53.6 °C
change of melting temperature, mutant - wild type (higher = more stable) (pH 3, glycine-HCl 10 mM): 1.7 °C
unfolding enthalpy (van 't Hoff) (pH 3, glycine-HCl 10 mM): 106 kcal/mol
ddG of mutation (higher = less stable) [2]: -1.9 kcal/mol
Tm (pH 5.5, Sodium acetate 10 mM): 59.5 °C
change of melting temperature, mutant - wild type (higher = more stable) (pH 5.5, Sodium acetate 10 mM): 7 °C
unfolding enthalpy (van 't Hoff) (pH 5.5, Sodium acetate 10 mM): 107 kcal/mol

H62P
ddG of mutation (higher = less stable) [1]: -1 kcal/mol
Tm (pH 3, glycine-HCl 10 mM): 54.3 °C
change of melting temperature, mutant - wild type (higher = more stable) (pH 3, glycine-HCl 10 mM): 3.4 °C
unfolding enthalpy (van 't Hoff) (pH 3, glycine-HCl 10 mM): 110 kcal/mol
ddG of mutation (higher = less stable) [2]: -1.1 kcal/mol
Tm (pH 5.5, Sodium acetate 10 mM): 56.6 °C
change of melting temperature, mutant - wild type (higher = more stable) (pH 5.5, Sodium acetate 10 mM): 4.1 °C
unfolding enthalpy (van 't Hoff) (pH 5.5, Sodium acetate 10 mM): 102 kcal/mol

V74L
ddG of mutation (higher = less stable) [1]: -1.1 kcal/mol
Tm (pH 3, glycine-HCl 10 mM): 54.6 °C
change of melting temperature, mutant - wild type (higher = more stable) (pH 3, glycine-HCl 10 mM): 3.7 °C
unfolding enthalpy (van 't Hoff) (pH 3, glycine-HCl 10 mM): 119 kcal/mol
ddG of mutation (higher = less stable) [2]: -0.9 kcal/mol
Tm (pH 5.5, Sodium acetate 10 mM): 55.8 °C
change of melting temperature, mutant - wild type (higher = more stable) (pH 5.5, Sodium acetate 10 mM): 3.3 °C
unfolding enthalpy (van 't Hoff) (pH 5.5, Sodium acetate 10 mM): 91.2 kcal/mol

G23A
ddG of mutation (higher = less stable) [1]: -0.7 kcal/mol
Tm (pH 3, glycine-HCl 10 mM): 53.2 °C
change of melting temperature, mutant - wild type (higher = more stable) (pH 3, glycine-HCl 10 mM): 2.3 °C
unfolding enthalpy (van 't Hoff) (pH 3, glycine-HCl 10 mM): 99.3 kcal/mol
ddG of mutation (higher = less stable) [2]: -0.5 kcal/mol
Tm (pH 5.5, Sodium acetate 10 mM): 54.3 °C
change of melting temperature, mutant - wild type (higher = more stable) (pH 5.5, Sodium acetate 10 mM): 1.8 °C
unfolding enthalpy (van 't Hoff) (pH 5.5, Sodium acetate 10 mM): 91.8 kcal/mol
